The supplement of paper PMC7877785
± gives the uncertainty stated by the source.

Assay: self-splicing fitness, log relative to wild type (ln ratio); higher = more splicing; Tetrahymena group I intron in knt gene, E. coli kanamycin selection, DiMSum; sequences stand for … in CUCUCU…GGAGGGAAAAGUUAUCAGGCAUGCACCUGGUAGCUAGUCUUUAAACCAAUAGAUUGCAUCGGUUUAAAAGGCAAGACCGUCAAAUUGCGGGAAAGGGGUCAACAGCCGUUCAGUACCAAGUCUCAGGGGAAACUUUGAGAUGGCCUUGCAAAGGGUAUGGUAAUAAGCUGACGGACAUGGUCCUAACCACGCAGCCAAGUCCUAAGUCAACAGAUCUUCUGUUGAUAUGGAUGCAGUUCACAGACUAAAUGUCGGUCGGGGAAGAUGUAUUCUUCUCAUAAGAUAUAGUCGGACCUCUCCUUAAUGGGAGCUAGCGGAUGAAGUGAUGCAACACUGGAGCCGCUGGGAACUAAUUUGUAUGCGAAAGUAUAUUGAUUAGUUUUGGAGUACUCGUGGUCG
In short: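 The eight P1ex-region nucleotides of an intron in the knt kanamycin-resistance gene on pET-22b(+) were all randomised and the library put into E. coli BL21(DE3). Six replicate transformations were grown overnight at 37°C or 30°C on LB agar with or without 25 μg/mL kanamycin, together with 100 μg/mL carbenicillin, 50 μM IPTG and 0.2% rhamnose. Colonies were pooled and amplicon-sequenced on an Illumina HiSeq 2500. Fitness from DiMSum is the error-weighted combination of wild-type-normalised replicate fold changes, kanamycin over none.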

UGAGAGCAAUAUUACGUGAU
self-splicing fitness (ln) (30 °C): -3.97 ± 0.46 | self-splicing fitness (ln) (37 °C): -2.72 ± 0.38

GACAAGCAAUAUUACGGGCG
self-splicing fitness (ln) (30 °C): -1.27 ± 0.061 | self-splicing fitness (ln) (37 °C): -0.455 ± 0.072

GAACAGCAAUAUUACGGCCA
self-splicing fitness (ln) (30 °C): -0.58 ± 0.18 | self-splicing fitness (ln) (37 °C): -0.441 ± 0.22

ACGCAGCAAUAUUACGAUAG
self-splicing fitness (ln) (30 °C): -4.2 ± 0.21 | self-splicing fitness (ln) (37 °C): -2.65 ± 0.19

UGCUAGCAAUAUUACGCGUG
self-splicing fitness (ln) (30 °C): -0.934 ± 0.074 | self-splicing fitness (ln) (37 °C): -0.462 ± 0.082

AGAUAGCAAUAUUACGAUUC
self-splicing fitness (ln) (30 °C): -1.7 ± 0.12 | self-splicing fitness (ln) (37 °C): -0.442 ± 0.16

GAGAAGCAAUAUUACGUUGU
self-splicing fitness (ln) (30 °C): -3.19 ± 0.19 | self-splicing fitness (ln) (37 °C): -3.31 ± 0.32

CUAAAGCAAUAUUACGCUCG
self-splicing fitness (ln) (30 °C): -0.715 ± 0.12 | self-splicing fitness (ln) (37 °C): -0.626 ± 0.15

ACUAAGCAAUAUUACGCCGC
self-splicing fitness (ln) (30 °C): -3.02 ± 0.35 | self-splicing fitness (ln) (37 °C): -1.86 ± 0.41

AAACAGCAAUAUUACGAGGG
self-splicing fitness (ln) (30 °C): -3.69 ± 0.15 | self-splicing fitness (ln) (37 °C): -2.33 ± 0.15

UGGCAGCAAUAUUACGCCCC
self-splicing fitness (ln) (30 °C): -1.11 ± 0.29 | self-splicing fitness (ln) (37 °C): -0.487 ± 0.36

CUGAAGCAAUAUUACGUUGA
self-splicing fitness (ln) (30 °C): -4.04 ± 0.18 | self-splicing fitness (ln) (37 °C): -2.66 ± 0.21

GAAUAGCAAUAUUACGAAAA
self-splicing fitness (ln) (30 °C): -1.52 ± 0.22 | self-splicing fitness (ln) (37 °C): -1.02 ± 0.2

GUACAGCAAUAUUACGCCAC
self-splicing fitness (ln) (30 °C): -1.49 ± 0.39

CUAAAGCAAUAUUACGCUGG
self-splicing fitness (ln) (30 °C): -3.74 ± 0.22 | self-splicing fitness (ln) (37 °C): -2.11 ± 0.25

AGCCAGCAAUAUUACGAACC
self-splicing fitness (ln) (30 °C): -0.758 ± 0.12 | self-splicing fitness (ln) (37 °C): -0.0185 ± 0.11

UGAAAGCAAUAUUACGCAAU
self-splicing fitness (ln) (30 °C): -2.16 ± 0.24 | self-splicing fitness (ln) (37 °C): 0.457 ± 0.23

UUGAAGCAAUAUUACGCUAC
self-splicing fitness (ln) (37 °C): -1.75 ± 0.37

AGCCAGCAAUAUUACGACCU
self-splicing fitness (ln) (30 °C): 0.00818 ± 0.069 | self-splicing fitness (ln) (37 °C): 0.00767 ± 0.083

CGCGAGCAAUAUUACGUAUA
self-splicing fitness (ln) (30 °C): -3.38 ± 0.27 | self-splicing fitness (ln) (37 °C): -1.24 ± 0.24

CUUCAGCAAUAUUACGAGAG
self-splicing fitness (ln) (30 °C): -2.81 ± 0.12 | self-splicing fitness (ln) (37 °C): -1.79 ± 0.14

CCCCAGCAAUAUUACGGCGA
self-splicing fitness (ln) (30 °C): -2.05 ± 0.14 | self-splicing fitness (ln) (37 °C): -1.64 ± 0.14

GACCAGCAAUAUUACGCUGG
self-splicing fitness (ln) (30 °C): -3.16 ± 0.13 | self-splicing fitness (ln) (37 °C): -2.95 ± 0.21

CUCUAGCAAUAUUACGCCCA
self-splicing fitness (ln) (30 °C): -2.25 ± 0.4

GUAAAGCAAUAUUACGGUGA
self-splicing fitness (ln) (30 °C): -0.896 ± 0.084 | self-splicing fitness (ln) (37 °C): -0.575 ± 0.1

GUUUAGCAAUAUUACGGGAA
self-splicing fitness (ln) (30 °C): -2.96 ± 0.23 | self-splicing fitness (ln) (37 °C): -2.04 ± 0.19

UUAUAGCAAUAUUACGAAUU
self-splicing fitness (ln) (30 °C): -3.24 ± 0.33 | self-splicing fitness (ln) (37 °C): -0.681 ± 0.25

GUUUAGCAAUAUUACGCUAA
self-splicing fitness (ln) (30 °C): -3.38 ± 0.32 | self-splicing fitness (ln) (37 °C): -1.4 ± 0.21

UAAAAGCAAUAUUACGAUCG
self-splicing fitness (ln) (30 °C): 0.0746 ± 0.077 | self-splicing fitness (ln) (37 °C): 0.385 ± 0.1

UUAAAGCAAUAUUACGAACG
self-splicing fitness (ln) (30 °C): 0.275 ± 0.12 | self-splicing fitness (ln) (37 °C): 0.794 ± 0.16

GACAAGCAAUAUUACGAACA
self-splicing fitness (ln) (30 °C): -1.52 ± 0.13 | self-splicing fitness (ln) (37 °C): -0.000414 ± 0.11

UUUGAGCAAUAUUACGUCUU
self-splicing fitness (ln) (30 °C): -3.77 ± 0.32 | self-splicing fitness (ln) (37 °C): -3.16 ± 0.43

CACGAGCAAUAUUACGCCCG
self-splicing fitness (ln) (30 °C): -1.88 ± 0.29 | self-splicing fitness (ln) (37 °C): -1.9 ± 0.28

ACGCAGCAAUAUUACGCUCA
self-splicing fitness (ln) (30 °C): -0.563 ± 0.063 | self-splicing fitness (ln) (37 °C): 0.124 ± 0.088

CGUCAGCAAUAUUACGUCUG
self-splicing fitness (ln) (30 °C): -0.234 ± 0.062 | self-splicing fitness (ln) (37 °C): 0.106 ± 0.08

AUGAAGCAAUAUUACGAAGC
self-splicing fitness (ln) (30 °C): -3.46 ± 0.18 | self-splicing fitness (ln) (37 °C): -1.89 ± 0.19

UGAAAGCAAUAUUACGUACU
self-splicing fitness (ln) (30 °C): -0.121 ± 0.089 | self-splicing fitness (ln) (37 °C): -0.476 ± 0.091

CCUGAGCAAUAUUACGUAUA
self-splicing fitness (ln) (30 °C): -3.53 ± 0.23 | self-splicing fitness (ln) (37 °C): -2.51 ± 0.24

ACAGAGCAAUAUUACGUCGU
self-splicing fitness (ln) (30 °C): -3.11 ± 0.16 | self-splicing fitness (ln) (37 °C): -0.947 ± 0.15

CGUUAGCAAUAUUACGUGAU
self-splicing fitness (ln) (30 °C): -3.16 ± 0.24 | self-splicing fitness (ln) (37 °C): -2.45 ± 0.2

UACUAGCAAUAUUACGUCGG
self-splicing fitness (ln) (30 °C): -2.29 ± 0.15 | self-splicing fitness (ln) (37 °C): -2.18 ± 0.18

UAACAGCAAUAUUACGUUGU
self-splicing fitness (ln) (30 °C): -4.18 ± 0.16 | self-splicing fitness (ln) (37 °C): -2.67 ± 0.14

UAAAAGCAAUAUUACGACAC
self-splicing fitness (ln) (30 °C): -1.88 ± 0.15 | self-splicing fitness (ln) (37 °C): -0.594 ± 0.17

UACAAGCAAUAUUACGCACA
self-splicing fitness (ln) (30 °C): -1.23 ± 0.11 | self-splicing fitness (ln) (37 °C): -0.242 ± 0.11

AGGAAGCAAUAUUACGUUGU
self-splicing fitness (ln) (30 °C): -3.98 ± 0.18 | self-splicing fitness (ln) (37 °C): -2.82 ± 0.15

CCACAGCAAUAUUACGCACC
self-splicing fitness (ln) (30 °C): -2.62 ± 0.28 | self-splicing fitness (ln) (37 °C): -1.71 ± 0.28

CUUCAGCAAUAUUACGUUUA
self-splicing fitness (ln) (30 °C): -3.96 ± 0.3 | self-splicing fitness (ln) (37 °C): -2.49 ± 0.23

AAACAGCAAUAUUACGCUAC
self-splicing fitness (ln) (30 °C): -3.84 ± 0.2 | self-splicing fitness (ln) (37 °C): -3.56 ± 0.24
